Source: patent US20140363428A1 (Chugai, published 2014)
Substitutions are numbered along the chain they refer to.

B1: IgG1-F1353 (antibody)
heavy: QVQLQESGPGLVKPSETLSLTCAVSGHSISHDHAWSWVRQPPGEGLEWIGFISYSGITNYNPSLQGRVTISRDNSKNTLYLQMNSLRAEDTAVYYCARSLARTTAMDYWGEGTLVTVSSASTKGPSVFPLAPSSKSTSGGTAALGCLVKDYFPEPVTVSWNSGALTSGVHTFPAVLQSSGLYSLSSVVTVPSSSLGTQTYICNVNHKPSNTKVDKKVEPKSCDKTHTCPPCPAPELRGGPKVFLFPPKPKDTLYISRTPEVTCVVVDVSHEDPEVKFNWYVDGVEVHNAKTKPREEQYNSTYRVVSVLTVLHQDWLNGKEYKCKVSNKALPAPIEKTISKAKGQPREPQVYTLPPSRDELTKNQVSLTCLVKGFYPSDIAVEWESNGQPENNYKTTPPVLDSDGSFFLYSKLTVDKSRWQQGNVFSCSVMHEALDYHTTRKELSLSP
light: not shown
B2: IgG1-F1372 (antibody)
heavy: B1 heavy with S256T, T258E
light: not shown
B3: IgG1-F1366 (antibody)
heavy: B1 heavy with T258E, T438F, R440K
light: not shown
B4: IgG1-F1368 (antibody)
heavy: B1 heavy with S256T, T258E, D435H, T438F, R440K
light: not shown
B5: IgG1-F1362 (antibody)
heavy: B1 heavy with S256T, T438F, R440K
light: not shown
B6: IgG1-F1364 (antibody)
heavy: B1 heavy with T258E, D435H, T438F, R440K
light: not shown
B7: IgG1-F1376 (antibody)
heavy: B1 heavy with S256T, T258E, D435H, T438V, R440Q, E442S
light: not shown
B8: IgG1-F1358 (antibody)
heavy: B1 heavy with S256T, D435H, T438F, R440K
light: not shown
B9: IgG1-F1367 (antibody)
heavy: B1 heavy with S256T, T258E, D435H
light: not shown
B10: IgG1-F1360 (antibody)
heavy: B1 heavy with S256T, R440K
light: not shown
B11: IgG1-F1357 (antibody)
heavy: B1 heavy with S256T, D435H
light: not shown
B12: IgG1-F1373 (antibody)
heavy: B1 heavy with S256T, T258E, T438F, R440K
light: not shown
B13: IgG1-F1355 (antibody)
heavy: B1 heavy with T438F
light: not shown
B14: IgG1-F1375 (antibody)
heavy: B1 heavy with S256T, D435H, T438V, R440Q, E442S
light: not shown
B15: IgG1-F1354 (antibody)
heavy: B1 heavy with T438F, R440K
light: not shown
B16: IgG1-F1365 (antibody)
heavy: B1 heavy with T258E, R440K
light: not shown
B17: IgG1-F1377 (antibody)
heavy: B1 heavy with T258E, D435H, T438V, R440Q, E442S
light: not shown
B18: IgG1-F1361 (antibody)
heavy: B1 heavy with S256T
light: not shown
B19: IgG1-F1359 (antibody)
heavy: B1 heavy with S256T, D435H, T438F
light: not shown
B20: IgG1-F1356 (antibody)
heavy: B1 heavy with R237L, G238R, K241S, L330R, D435H, T438V, R440Q, E442S
light: not shown
B21: F1578 (antibody)
chain 1: B1 heavy with S256T, T258E, D435R, T438V
chain 2: DIQMTQSPSSLSASVGDSVTITCQASTDISSHLNWYQQKPGKAPELLIYYGSHLLSGVPSRFSGSGSGTDFTFTISSLEAEDAATYYCGQGNRLPYTFGQGTKVEIERTVAAPSVFIFPPSDEQLKSGTASVVCLLNNFYPREAKVQWKVDNALQSGNSQESVTEQDSKDSTYSLSSTLTLSKADYEKHKVYACEVTHQGLSSPVTKSFNRGEC
B22: F1644 (antibody)
chain 1: B1 heavy with S256T, T258E, D435K, T438V, R440K
chain 2: B21 chain 2
B23: F1611 (antibody)
chain 1: B1 heavy with S256T, R257L, T258E, E260I, T438V, R440K
chain 2: B21 chain 2
B24: F1645 (antibody)
chain 1: B1 heavy with S256T, T258E, D435K, T438V, E442D
chain 2: B21 chain 2
B25: F1576 (antibody)
chain 1: B1 heavy with S256T, T258E, D435P, T438V
chain 2: B21 chain 2
B26: F1605 (antibody)
chain 1: B1 heavy with S256T, R257L, T258E, T438V, E442D
chain 2: B21 chain 2
B27: F1610 (antibody)
chain 1: B1 heavy with S256T, R257L, T258E, E260D, T438V, R440K
chain 2: B21 chain 2
B28: F1579 (antibody)
chain 1: B1 heavy with S256T, T258E, D435S, T438V
chain 2: B21 chain 2
B29: F1612 (antibody)
chain 1: B1 heavy with S256T, R257L, T258E, E260D, T438V, R440K, E442D
chain 2: B21 chain 2
B30: F1650 (antibody)
chain 1: B1 heavy with S256T, T258E, D435R, T438V, R440K
chain 2: B21 chain 2
B31: F1641 (antibody)
chain 1: B1 heavy with S256T, T258E, D435A, T438V, R440K
chain 2: B21 chain 2
B32: F1572 (antibody)
chain 1: B1 heavy with S256T, T258E, D435K, T438V
chain 2: B21 chain 2
B33: F1647 (antibody)
chain 1: B1 heavy with S256T, T258E, D435P, T438V, R440K
chain 2: B21 chain 2
B34: F1649 (antibody)
chain 1: B1 heavy with S256T, T258E, D435P, T438V, R440K, E442D
chain 2: B21 chain 2
B35: F1642 (antibody)
chain 1: B1 heavy with S256T, T258E, D435A, T438V, E442D
chain 2: B21 chain 2
B36: F1643 (antibody)
chain 1: B1 heavy with S256T, T258E, D435A, T438V, R440K, E442D
chain 2: B21 chain 2
B37: F1648 (antibody)
chain 1: B1 heavy with S256T, T258E, D435P, T438V, E442D
chain 2: B21 chain 2
B38: F1586 (antibody)
chain 1: B1 heavy with S256T, R257L, T258E, E260D, T438V
chain 2: B21 chain 2
B39: F1615 (antibody)
chain 1: B1 heavy with S256T, R257L, T258E, E260I, T438V, E442D
chain 2: B21 chain 2
B40: F1646 (antibody)
chain 1: B1 heavy with S256T, T258E, D435K, T438V, R440K, E442D
chain 2: B21 chain 2
B41: F1567 (antibody)
chain 1: B1 heavy with S256T, T258E, D435A, T438V
chain 2: B21 chain 2
B42: F1614 (antibody)
chain 1: B1 heavy with S256T, R257L, T258E, E260D, T438V, E442D
chain 2: B21 chain 2
B43: F1592 (antibody)
chain 1: B1 heavy with S256T, R257L, T258E, E260I, T438V
chain 2: B21 chain 2
B44: F1613 (antibody)
chain 1: B1 heavy with S256T, R257L, T258E, E260I, T438V, R440K, E442D
chain 2: B21 chain 2
B45: F1599 (antibody)
chain 1: B1 heavy with S256T, T258E, T438V, R440K, E442D
chain 2: B21 chain 2
B46: F1654 (antibody)
heavy: B1 heavy with S256T, T258E, D435S, T438V, E442D
light: B21 chain 2
B47: F1653 (antibody)
heavy: B1 heavy with S256T, T258E, D435S, T438V, R440K
light: B21 chain 2
B48: F1655 (antibody)
heavy: B1 heavy with S256T, T258E, D435S, T438V, R440K, E442D
light: B21 chain 2
B49: F1604 (antibody)
heavy: B1 heavy with S256T, R257L, T258E, T438V, R440K, E442D
light: B21 chain 2

molecular target: T1, soluble human FcRn (human, UniProt P55899 24-297; P61769 21-119); experiment: SPR (Biacore), pH 7.0, 25 C;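 further: antibodies captured on a protein L-coated CM4 chip with human FcRn injected as analyte, KD obtained from ka and kd fitted to sensorgrams, in sodium phosphate buffer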
T1 construct: Heterodimer of alpha chain and beta2-microglobulin; also called hFcRn
Procedure: An appropriate amount of protein L (ACTIGEN) was immobilized onto Sensor chip CM4 (GE Healthcare) by the amino coupling method, and the chip was allowed to capture an antibody of interest. Then, diluted FcRn solutions and running buffer (as a reference solution) were injected to allow human FcRn to interact with the antibody captured on the sensor chip. The running buffer used comprised 50 mmol/l sodium phosphate, 150 mmol/l NaCl, and 0.05% (w/v) Tween20 (pH 7.0). FcRn was diluted using each buffer. The chip was regenerated using 10 mmol/l glycine-HCl (pH 1.5). Assays were carried out exclusively at 25 degrees C. The association rate constant ka (1/Ms) and dissociation rate constant kd (1/s), both of which are kinetic parameters, were calculated based on the sensorgrams obtained in the assays, and KD (M) of each antibody for human FcRn was determined from these values. Each parameter was calculated using Biacore T100 Evaluation Software (GE Healthcare).

Row | Kd [nM] | Binder
1 | 430 | B1
2 | 230 | B2
3 | 120 | B3
4 | 55 | B4
5 | 140 | B5
6 | 75 | B6
7 | 91 | B7
8 | 91 | B8
9 | 180 | B9
10 | 310 | B10
11 | 280 | B11
12 | 87 | B12
13 | 250 | B13
14 | 100 | B14
15 | 230 | B15
16 | 310 | B16
17 | 83 | B17
18 | 350 | B18
19 | 130 | B19
20 | 160 | B20

molecular target: T1, soluble human FcRn; experiment: SPR (Biacore), pH 7.0

Row | Kd [nM] | Binder
21 | 46 | B21
22 | 35 | B22
23 | 52 | B23
24 | 36 | B24
25 | 43 | B25
26 | 61 | B26
27 | 48 | B27
28 | 54 | B28
29 | 49 | B29
30 | 40 | B30
31 | 41 | B31
32 | 41 | B32
33 | 38 | B33
34 | 37 | B34
35 | 41 | B35
36 | 39 | B36
37 | 38 | B37
38 | 55 | B38
39 | 60 | B39
40 | 35 | B40
41 | 48 | B41
42 | 51 | B42
43 | 55 | B43
44 | 52 | B44
45 | 74 | B45
46 | 45 | B46
47 | 45 | B47
48 | 44 | B48
49 | 60 | B49
